Data taken from patent publication US10466252B2, “Methods for selecting protease resistant polypeptides” (Glaxo Group Limited, priority 2008, dated 2019).
Changes are numbered by the printed parent chain.

B1: DMS7148: *GLP-1 variant (W25-D mutation) fused to ALBUDAB DOM7h-14 by PSS linker; SEQ ID NO: 16 (protein)
chain: HGEGTFTSDVSSYLEGQAAKEFIADLVEGRGPSSDIQMTQSPSSLSASVGDRVTITCRASQWIGSQLSWYQQKPGKAPKLLIMWRSSLQSGVPSRFSGSGSGTDFTLTISSLQPEDFATYYCAQGAALPRTFGQGTKVEIKR
modifications: Source Amino acid sequence of DMS7148 domain antibody made using molecular biology techniques.
B2: DMS7161: *GLP-1 variant of DMS7148 fused to DOM7h-14-10 by PSS linker; A = minimal media, B = with Yeast Extract (protein)
chain: B1 chain with A126L, A127R, L128H, R130K
modifications: Source Amino acid sequence of DMS7161 domain antibody made using molecular biology techniques.
notes: *GLP-1 variant of DMS7148 fused to DOM7h-14-10 by PSS linker; A = minimal media, B = with Yeast Extract

Legend:
human GLP-1 receptor = target: T1, human GLP-1 receptor (Homo sapiens, UniProt P43220); experiment: GLP-1 receptor assay, CHO 6CRE GLP1R cells, luciferase reporter (384-well, STEADY GLO); format: cell-based
T1 construct: expressed in transfected cells; host or cells: CHO K1 (CHO 6CRE GLP1R)
T1 sequence (P43220 24-463): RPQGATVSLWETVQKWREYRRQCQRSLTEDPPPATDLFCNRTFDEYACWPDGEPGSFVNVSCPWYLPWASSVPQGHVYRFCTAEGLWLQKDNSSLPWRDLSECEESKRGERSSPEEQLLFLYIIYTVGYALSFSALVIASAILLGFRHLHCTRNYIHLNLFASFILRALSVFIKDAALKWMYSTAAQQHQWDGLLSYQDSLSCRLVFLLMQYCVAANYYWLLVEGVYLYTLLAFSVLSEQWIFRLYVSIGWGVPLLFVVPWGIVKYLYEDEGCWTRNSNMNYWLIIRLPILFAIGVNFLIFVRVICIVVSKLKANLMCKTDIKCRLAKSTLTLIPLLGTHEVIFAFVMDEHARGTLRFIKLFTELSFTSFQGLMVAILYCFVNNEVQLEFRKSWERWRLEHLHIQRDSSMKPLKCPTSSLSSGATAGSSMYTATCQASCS
Description: Background: GLP-1R is a 7TM G-protein coupled receptor which is expressed on CHO cells. […] CHO cells are stably transfected with the 6CRE/luc reporter gene. […] This then catalyses a reaction with luciferin to produce light which can be measured on a luminometer.
Suspension culture was maintained for forty-eight hours. Cells were then diluted into 15 mM HEPES, 2 mM L glutamine (2.5×10^5 cells/ml) and dispensed into 384-well plates containing 10 ul/well of the compound to be assayed. After the addition of assay controls, plates were returned to the incubator for 3h at 37° C. and 5% CO2. […] Plates were placed in the reader (Packard TopCount) and pre-incubated for 5 minutes prior to reading […] and plotting of results. Compound was assayed at a range of concentrations response curve to be fitted from which pC50s were calculated.

[1] = test system: natural protease acting in E. coli cells; experiment: Integrity after expression in E. coli (non reducing SDS-PAGE, mass spectrometry, Edman sequencing); details: MS and Edman sequencing
Description: Expression was performed by inoculation of a 50 milliliter culture of 2×TY media supplemented with OVERNIGHT EXPRESS™ autoinduction solutions (1 milliliter of Solution 1 (Cat. No. 71298), 2.5 milliliters of Solution 2 (Cat. No. 71299), 50 microliters of Solution 3 (Cat. No 71304), Novagen) and 100 microgram per milliliter of carbenicillin. Culture was carried overnight at 37° C., and then the culture supernatant was clarified by centrifugation at 3700×g for 45 minutes. The expressed protein was then purified from the clarified supernatant using PROTEIN L STREAMLINE™ (GE Healthcare, Cat. No. 28-4058-03, protein L coupled), and eluted from the Protein L using 0.1M glycine pH 2.0, then neutralized using 0.2 volumes of 1M Tris pH 8.0.
After the plasmid DNA pDOM35 comprising sequence of DMS7161 was transformed into BL21(DE3), glycerol stock was prepared from grown colonies, by scraping colonies into minimal media with glucose and addition of glycerol, final conentration of approximately 15%. Expression of DMS7161 was started by inoculation of the glycerol into 50 milliliters of minimal media (DMS7161 A) supplemented in Yeast Extract for final concentration 10 g/liter (DMS7161 B) so as to obtain the starting culture density of OD600=0.024. The culture was grown to OD600 of approximately 1.4 at 30° C., then induced by the addition of 0.1 mM isopropyl-beta-d-thiogalactoside. […]

[2] = target: T2, GLP-1 receptor (CHO 6CRE GLP1R cells) (Homo sapiens, UniProt P43220); experiment: GLP-1 assay, CHO 6CRE GLP1R cells, luciferase reporter (96-well, BRIGHT-GLO); format: cell-based
T2 construct: expressed in transfected cells; host or cells: CHO 6CRE GLP1R cells (CHO K1)
T2 sequence (P43220 24-463): as above

| Molecule | % max response (human GLP-1 receptor; CHO 6CRE GLP1R cells, 3h at 37° C.) [%] | activity in GLP-1 receptor assay compared with GLP-1 peptide (human GLP-1 receptor; FIG. 6) | integrity / degradation on expression in E. coli [1] | activity compared with DMS7148 [2] |
| --- | --- | --- | --- | --- |
| B1 | 107 | active, however less active than GLP-1 peptide | well expressed in E. coli with the majority of material migrating at the expected size | – |
| B2 | – | – | well expressed in E. coli with the majority of material migrating at the expected size | as active as DMS7148 |
